Laboratory results published in patent US20220213196A1 (GRITSTONE BIO, published 2022).
Numbering of substitutions follows the chain as printed.

Columns and labels:
[1] = molecular target: T1, HLA-A*01:01_… (HLA-PEPTIDE target G2), recombinant soluble complex (human, UniProt P04439-2 25-297; P61769 21-119, enzymatically biotinylated (BirA) for screening and functional assays); test: BLI (Octet), biotinylated pHLA on streptavidin sensors, Fab in solution
[2] = molecular target: HLA-B*35:01_… (HLA-PEPTIDE target G5), recombinant soluble complex (human, UniProt P01889 25-297 at identity 0.94); P61769 21-119, enzymatically biotinylated (BirA) for screening and functional assays); test: scFv PPE ELISA
[3] = molecular target: HLA-A*01:01_… (G2) on K562 cells (human); test: flow cytometry, HLA-A*01:01-transduced K562 cells pulsed with target peptide, IgG titration
[4] = molecular target: T1, HLA-A*01:01_… (HLA-PEPTIDE target G2), …; test: BLI Octet, pHLA on streptavidin sensor, 1:1 fit
[5] = molecular target: T2, HLA-A*02:01_… (HLA-PEPTIDE target G8), recombinant soluble complex (human, UniProt P04439 25-297 at identity 0.94); P61769 21-119, enzymatically biotinylated (BirA) for screening and functional assays); test: BLI (Octet), biotinylated pHLA on streptavidin sensors; printed under the Fab sensorgrams, the sheet does not say which format or fit gave the bivalent value
T2 construct: Also crystallised with Fab G8-P1C11

[6] = molecular target: T2, HLA-A*02:01_… (HLA-PEPTIDE target G8), …; test: BLI Octet, pHLA on streptavidin sensor, 1:1 fit
[7] = molecular target: T3, HLA-A*01:01_… (G10) on cells (human); test: flow cytometry histogram, IgG at 30 µg/mL on HLA-A*01:01-transduced K562 cells pulsed with 50 µM …
T3 construct: also called G10-presenting K562 cells; Colo829

[8] = molecular target: T2, HLA-A*02:01_… (HLA-PEPTIDE target G8), …; test: BLI (Octet), biotinylated pHLA on streptavidin sensors; printed under the Fab sensorgrams, the sheet does not say which format or fit gave the bivalent value [cont'd]

B1: Fab G2-P1H11 (Fab, V domains shown)
VH: QVQLVQSGAEVKKPGASVKVSCKASGYTFTNYYMHWVRQAPGQGLEWMGMINPSGGGTSYAQKFQGRVTMTRDTSTSTVYMELSSLRSEDTAVYYCARGNPWELRLDYWGQGTLVTVSS
VL: DIQMTQSPSSLSASVGDRVTITCQASQDISNYLNWYQQKPGKAPKLLIYAASSLQSGVPSRFSGSGSGTDFTLTISSLQPEDFATYYCQQYYSYPFTFGPGTKVDIK
notes: Fab
Kd [1]: 46.1 nM
koff [1]: 0.0233 s⁻¹
kon [1]: 527000 M⁻¹ s⁻¹

B2: scFv G5-P1-E05 (scFv, V domains shown)
VH: QVQLVQSGAEVKKPGASVKVSCKASGYTFTSYNMHWVRQAPGQGLEWMGWINPNSGGTNYAQKFQGRVTMTRDTSTSTVYMELSSLRSEDTAVYYCARDVMDVWGQGTTVTVSS
VL: B1 VL with Q24R, D28G, A50Y, Y91T, S93M, Y94M, F96Y, P100Q, D105E
fold binding to target pHLA over minipool of negative control pHLAs [2]: ≥ 3 fold

B3: scFv G5R4-P3G05 (scFv, V domains shown)
VH: QVQLVQSGAEVKKPGASVKVSCKASGYTFTNYYMHWVRQAPGQGLEWMGIINPSGGSTSYAQKFQGRVTMTRDTSTSTVYMELSSLRSEDTAVYYCARSWFGGFNYHYYGMDVWGQGTTVTVSS
VL: B1 VL with Q27E, Y32H, A50D, S52L, Y91A, Y92N, Y94F
fold binding to target pHLA over minipool of negative control pHLAs [2]: ≥ 3 fold

B4: IgG G2-P1H11 (antibody, V domains shown)
VH: B1 VH
VL: B1 VL
binding result [3]: binds

B5: Fab G2-P2C06 (Fab, V domains shown)
VH: QVQLVQSGAEVKKPGASVKVSCKSSGYSFDSYVVNWVRQAPGQGLEWMGWINPNSGGTNYAQKFQGRVTMTRDTSTSTVYMELSSLRSEDTAVYYCARDWVLDYWGQGTLVTVSS
VL: B1 VL with Q24R, D28T, N31S, Y32W, N34A, Y91S, Y94T
notes: Fab
Kd [4]: 30.6 nM
koff [4]: 0.0348 s⁻¹
kon [4]: 1.14e+06 M⁻¹ s⁻¹

B6: scFv G5-P3G08 (scFv, V domains shown)
VH: QVQLVQSGAEVKKPGASVKVSCKASGYIFRNYPMHWVRQAPGQGLEWMGWINPDSGGTKYAQKFQGRVTMTRDTSTSTVYMELSSLRSEDTAVYYCARDNGVGVDYWGQGTLVTVSS
VL: B1 VL with Q24R, D28G, N34A, Y91S, S93I, Y94T, F96Y, P100Q, V104L, D105E
fold binding to target pHLA over minipool of negative control pHLAs [2]: ≥ 3 fold

B7: Fab G8-P1B03 (Fab, V domains shown)
VH: EVQLLESGGGLVQPGGSLRLSCAASGFTFSDYYMSWVRQAPGKGLEWVSGINWNGGSTGYADSVKGRFTISRDNSKNTLYLQMNSLRAEDTAVYYCARVEQGYDIYYYYYMDVWGKGTTVTVSS
VL: B1 VL with Q24R, D28S, N31S, A50K, Q55E, Y91S, Y94A, F96Y
notes: Fab from HEK293
Apparent KD (bivalent) [5]: 3.54 nM
Kd [6]: 307 nM
koff [6]: 0.0511 s⁻¹
kon [6]: 167000 M⁻¹ s⁻¹

B8: Fab G8-P4F05 (Fab, V domains shown)
VH: QVQLVQSGAEVKKPGASVKVSCKASGYTFSNMYLHWVRQAPGQGLEWMGWINPNTGDTNYAQTFQGRVTMTRDTSTSTVYMELSSLRSEDTAVYYCARGLYGDYFLYYGMDVWGQGTKVTVSS
VL: B1 VL with Q24R, D28G, N34A, S53T, Y91S, Y94T, F96L, P100G, D105E
notes: Fab from HEK293; also called R3G8-P4F05
Apparent KD (bivalent) [5]: 7.9 nM
Kd [6]: 984 nM
koff [6]: 0.063 s⁻¹
kon [6]: 64000 M⁻¹ s⁻¹

B9: scFv G5R4-P4B01 (scFv, V domains shown)
VH: QVQLVQSGAEVKKPGSSVKVSCKASGGTFSSYAISWVRQAPGQGLEWMGGIIPIVGTANYAQKFQGRVTITADESTSTAYMELSSLRSEDTAVYYCARGGSYYYYGMDVWGQGTTVTVSS
VL: not shown
fold binding to target pHLA over minipool of negative control pHLAs [2]: ≥ 3 fold

B10: IgG G10-P1B07 (antibody, V domains shown)
VH: QVQLVQSGAEVKKPGASVKVSCKASGYTFTSYYMHWVRQAPGQGLEWMGIIHPGGGTTSYAQKFQGRVTMTRDTSTSTVYMELSSLRSEDTAVYYCARDKVYGDGFDPWGQGTLVTVSS
VL: DIQMTQSPSSLSASVGDRVTITCRASQSISRWLAWYQQKPGKAPKLLIFDASRLQSGVPSRFSGSGSGTDFTLTISSLQPEDFATYYCQQAEAFPYTFGQGTKVEIK
notes: IgG; also called R3G10-P1B07
binding result [7]: binds

B11: scFv G5-P1B12 (scFv, V domains shown)
VH: EVQLLESGGGLVQPGGSLRLSCAASGFTFSNSDMNWVRQAPGKGLEWVASISSSGGYINYADSVKGRFTISRDNSKNTLYLQMNSLRAEDTAVYYCAKVNWNDGPYFDYWGQGTLVTVSS
VL: B10 VL with R31S, F49Y, D50A, R53S, E92N, A93S, Y96L, Q100G
fold binding to target pHLA over minipool of negative control pHLAs [2]: ≥ 3 fold

B12: scFv G5-P1C12 (scFv, V domains shown)
VH: QVQLVQSGAEVKKPGSSVKVSCKASGGTFSNFGVSWLRQAPGQGLEWMGGIIPILGTANYAQKFQGRVTITADESTSTAYMELSSLRSEDTAVYYCATPTNSGYYGPYYYYGMDVWGQGTTVTVSS
VL: B10 VL with R31S, F49Y, D50A, R53T, A91S, E92Y, A93S, F94I, Y96L, Q100G
fold binding to target pHLA over minipool of negative control pHLAs [2]: ≥ 3 fold

B13: scFv G5-P4E04 (scFv, V domains shown)
VH: QVQLVQSGAEVKKPGASVKVSCKASGGTFSSYGISWVRQAPGQGLEWMGWINPNSGVTKYAQKFQGRVTMTRDTSTSTVYMELSSLRSEDTAVYYCARGDYYFDYWGQGTLVTVSS
VL: B10 VL with W32F, A34N, F49Y, D50G, L54P, A91S, E92Y, A93S, F94T, Y96L
fold binding to target pHLA over minipool of negative control pHLAs [2]: ≥ 3 fold

B14: scFv G5-P3G01 (scFv, V domains shown)
VH: QVQLVQSGAEVKKPGASVKVSCKASGGTFSGYLVSWVRQAPGQGLEWMGWINPNSGGTNTAQKFQGRVTMTRDTSTSTVYMELSSLRSEDTAVYYCAREGYGMDVWGQGTTVTVSS
VL: not shown
fold binding to target pHLA over minipool of negative control pHLAs [2]: ≥ 3 fold

B15: scFv G5-P4B02 (scFv, V domains shown)
VH: QVQLVQSGAEVKKPGASVKVSCKASGYTFTGYYMHWVRQAPGQGLEWMGWMNPNIGNTGYAQKFQGRVTMTRDTSTSTVYMELSSLRSEDTAVYYCARGIADSGSYYGNGRDYYYGMDVWGQGTTVTVSS
VL: DIVMTQSPDSLAVSLGERATINCKTSQSVLYRPNNENYLAWYQQKPGQPPKLLIYQASIREPGVPDRFSGSGSGTDFTLTISSLQAEDVAVYYCQQYYTTPYTFGQGTKLEIK
fold binding to target pHLA over minipool of negative control pHLAs [2]: ≥ 3 fold

B16: scFv G5R4-P2B10 (scFv, V domains shown)
VH: QVQLVQSGAEVKKPGASVKVSCKASGGTFSSYAISWVRQAPGQGLEWMGWMNPDSGSTGYAQRFQGRVTMTRDTSTSTVYMELSSLRSEDTAVYYCARGHSSGWYYYYGMDVWGQGTTVTVSS
VL: not shown
fold binding to target pHLA over minipool of negative control pHLAs [2]: ≥ 3 fold

B17: Fab G8-P5G08 (Fab, V domains shown)
VH: B8 VH with S30T, N31S, M32N, L34M, I51M, T55S, D57N, N59G, T63K, K118T
VL: not shown
notes: Fab from HEK293; also called R3G8-P5G08
Kd [6]: 530 nM
koff [6]: 0.0528 s⁻¹
kon [6]: 99700 M⁻¹ s⁻¹
Apparent KD (bivalent) [8]: 6.65 nM

B18: scFv G5R4-P1H11 (scFv, V domains shown)
VH: EVQLLESGGGLVKPGGSLRLSCAASGFTFSDYYMSWVRQAPGKGLEWVSYISSSSSYTNYADSVKGRFTISRDDSKNTLYLQMNSLKTEDTAVYYCARDVVANFDYWGQGTLVTVSS
VL: EIVMTQSPATLSVSPGERATLSCRASQSVSSNLAWYQQKPGQAPRLLIYAASARASGIPARFSGSGSGTEFTLTISSLQSEDFAVYYCQQYGSWPRTFGQGTKVEIK
fold binding to target pHLA over minipool of negative control pHLAs [2]: ≥ 3 fold

B19: scFv G5R4-P1D06 (scFv, V domains shown)
VH: QVQLVQSGAEVKKPGASVKVSCKASGYTFTSYDINWVRQAPGQGLEWMGWINPNSGDTKYSQKFQGRVTMTRDTSTSTVYMELSSLRSEDTAVYYCARDGTRYYGMDVWGQGTTVTVSS
VL: not shown
fold binding to target pHLA over minipool of negative control pHLAs [2]: ≥ 3 fold
